Seven molecules from patent US20230265151A1, “GIP/GLP1 CO-AGONIST COMPOUNDS” (priority 2020, published 2023) can be followed below.

Substitutions are numbered along the chain they refer to.

Common to all, as to experiment: cell-based or functional assay
In experiment [1] the target is human GLP-1 receptor (human, UniProt P43220 24-463).
The target of experiment [2] is T1, human GIP receptor (human, UniProt P48546 22-466).
T1 sequence (looked up): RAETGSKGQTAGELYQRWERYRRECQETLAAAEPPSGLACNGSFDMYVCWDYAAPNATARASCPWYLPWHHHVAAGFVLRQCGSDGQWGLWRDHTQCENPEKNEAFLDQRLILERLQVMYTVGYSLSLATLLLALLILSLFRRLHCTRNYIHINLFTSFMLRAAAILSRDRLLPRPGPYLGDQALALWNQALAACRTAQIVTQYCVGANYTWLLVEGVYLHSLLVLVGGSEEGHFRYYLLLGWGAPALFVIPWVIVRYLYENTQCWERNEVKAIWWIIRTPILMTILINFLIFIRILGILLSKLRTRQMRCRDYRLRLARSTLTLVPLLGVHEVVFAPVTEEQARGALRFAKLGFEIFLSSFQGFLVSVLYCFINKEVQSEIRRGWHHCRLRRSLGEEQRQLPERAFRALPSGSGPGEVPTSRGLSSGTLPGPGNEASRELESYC

The target of experiment [3] is human glucagon receptor (human, UniProt P47871 26-477).
The target in experiment [4] is human glucagon-like peptide-1 (GLP-1) receptor (human) (UniProt P43220).
In experiment [5] the target is human glucagon receptor (human) (UniProt P47871).
Experiment [6] has as its target T2, human glucose-dependent insulinotropic polypeptide (GIP) receptor (human) (UniProt P48546).
T2 sequence (looked up): T1 sequence (looked up)

B1: Example 230 (peptide)
peptide: YXEGTXTSDYXIXLDXKAQXKFIXXLIEGGPSSGAPPPS
modifications: Y-Aib-EGT-αMeF(2F)-TSDY-Aib-I-αMeL-LD-Orn-K((2-[2-(2-Amino-ethoxy)-ethoxy]-acetyl)2-(γ-Glu)-CO-(CH2)12-CO2H)AQ-Aib-K((2-[2-(2-Amino-ethoxy)-ethoxy]-acetyl)2-(γ-Glu)-CO-(CH2)12-CO2H)FI-(D-Glu)-αMeY-LIEGGPSSGAPPPS-NH2
Turning to B1, the “cAMP EC50 (1.0% HSA)” value was 49.7 nM in experiment [1], 2.57 nM in experiment [2] and above 9950 nM in experiment [3]. For the same molecule, the “cAMP Emax (1.0% HSA)” value in experiment [2] stood at 85.8%. For the same molecule, the cAMP EC50 in experiment [4] is 0.726 nM; in experiment [5] it was above 9950 nM; in experiment [6] it was 0.0199 nM. For the same molecule, the cAMP Emax in experiment [4] worked out at 90.3%; in experiment [6], 105%.

B2: Example 231 (peptide)
peptide: B1 peptide with K21E, E28K
modifications: Y-Aib-EGT-αMeF(2F)-TSDY-Aib-I-αMeL-LD-Orn-K((2-[2-(2-Amino-ethoxy)-ethoxy]-acetyl)2-(γ-Glu)-CO-(CH2)12-CO2H)AQ-Aib-EFI-(D-Glu)-αMeY-LIK((2-[2-(2-Amino-ethoxy)-ethoxy]-acetyl)2-(γ-Glu)-CO-(CH2)12-CO2H)GGPSSGAPPPS-NH2
As for B2, the results for the “cAMP EC50 (1.0% HSA)” value in experiment [1], in experiment [2] and in experiment [3] were 51.8 nM, 2.46 nM and above 9950 nM, respectively. Besides, the “cAMP Emax (1.0% HSA)” value in experiment [2] is 85.4%. Besides, the cAMP EC50 is 1.22 nM in experiment [4], above 9950 nM in experiment [5] and 0.0184 nM in experiment [6]. Besides, the cAMP Emax in experiment [4] is 107%; in experiment [6] it was 102%.

B3: Example 236 (peptide)
peptide: B1 peptide
modifications: Y-Aib-EGT-αMeF(2F)-TSDY-Aib-I-αMeL-LD-Orn-K((2-[2-(2-Amino-ethoxy)-ethoxy]-acetyl)2-(γ-Glu)-(10-(4-carboxyphenoxy)decanoyl))AQ-Aib-K((2-[2-(2-Amino-ethoxy)-ethoxy]-acetyl)2-(γ-Glu)-(10-(4-carboxyphenoxy)decanoyl))FI-(D-Glu)-αMeY-LIEGGPSSGAPPPS-NH2
For the molecule B3, the “cAMP EC50 (1.0% HSA)” value in experiment [1] was 32.6 nM; in experiment [2] it was 0.641 nM; in experiment [3], above 9950 nM. In addition, the “cAMP Emax (1.0% HSA)” value was 125% in experiment [1] and 80.5% in experiment [2]. The values for the cAMP EC50 in experiment [4], in experiment [5] and in experiment [6] were 0.336 nM, above 9950 nM and 0.0154 nM, respectively. Further, the cAMP Emax in experiment [4] came to 96.5%; in experiment [6], 104%.

B4: Example 234 (peptide)
peptide: B1 peptide with K17I, E28K
modifications: Y-Aib-EGT-αMeF(2F)-TSDY-Aib-I-αMeL-LD-Orn-IAQ-Aib-K((2-[2-(2-Amino-ethoxy)-ethoxy]-acetyl)2-(γ-Glu)-CO-(CH2)12-CO2H)Fl-(D-Glu)-αMeY-LIK((2-[2-(2-Amino-ethoxy)-ethoxy]-acetyl)2-(γ-Glu)-CO-(CH2)12-CO2H)GGPSSGAPPPS-NH2
For the molecule B4, the entries for the “cAMP EC50 (1.0% HSA)” value in experiment [1], in experiment [2] and in experiment [3] were 156 nM, 7.58 nM and above 9950 nM, respectively. Besides, the “cAMP Emax (1.0% HSA)” value in experiment [1] amounted to 102%; in experiment [2], 84.4%. For the same molecule, the cAMP EC50 in experiment [4] was 0.319 nM; in experiment [5] it was above 9950 nM; in experiment [6], 0.0182 nM. The cAMP Emax in experiment [4] was found to be 112%; in experiment [6], 107%.

B5: Example 237 (peptide)
peptide: B1 peptide with K21E, E28K
modifications: Y-Aib-EGT-αMeF(2F)-TSDY-Aib-I-αMeL-LD-Orn-K((2-[2-(2-Amino-ethoxy)-ethoxy]-acetyl)2-(γ-Glu)-(10-(4-carboxyphenoxy)decanoyl))AQ-Aib-EFI-(D-Glu)-αMeY-LIK((2-[2-(2-Amino-ethoxy)-ethoxy]-acetyl)2-(γ-Glu)-(10-(4-carboxyphenoxy)decanoyl))GGPSSGAPPPS-NH2
As for B5, the figures for the “cAMP EC50 (1.0% HSA)” value in experiment [1], in experiment [2] and in experiment [3] were 38.1 nM, 0.889 nM and above 9950 nM, respectively. Also, the “cAMP Emax (1.0% HSA)” value in experiment [2] was 93.1%. Further, the values for the cAMP EC50 in experiment [4], in experiment [5] and in experiment [6] were 0.633 nM, above 9950 nM and 0.0186 nM, respectively. The cAMP Emax in experiment [4] and in experiment [6] was 102% each time.

B6: Example 232 (peptide)
peptide: YXEGTXTSDYXIXLDXKAQXEFIXXLIEGGPSSGAPPPSK
modifications: Y-Aib-EGT-αMeF(2F)-TSDY-Aib-I-αMeL-LD-Orn-K((2-[2-(2-Amino-ethoxy)-ethoxy]-acetyl)2-(γ-Glu)-CO-(CH2)12-CO2H)AQ-Aib-EFI-(D-Glu)-αMeY-LIEGGPSSGAPPPSK((2-[2-(2-Amino-ethoxy)-ethoxyl-acetyl)2-(γ-Glu)-CO-(CH2)12-CO2H)-NH2
Regarding B6, the “cAMP EC50 (1.0% HSA)” value in experiment [1] is 33.6 nM; in experiment [2] it was 1.86 nM; in experiment [3], above 9950 nM. Further, the “cAMP Emax (1.0% HSA)” value in experiment [1] is 95.4%. The cAMP EC50 in experiment [4] was 0.565 nM; in experiment [5], above 9950 nM; in experiment [6] it was 0.0192 nM. Moreover, the cAMP Emax in experiment [4] was found to be 103%; in experiment [6] it was 101%.

B7: Example 235 (peptide)
peptide: B6 peptide with K17I, E21K
modifications: Y-Aib-EGT-aMeF(2F)-TSDY-Aib-I-aMeL-LD-Orn-IAQ-Aib-K((2-[2-(2-Amino-ethoxy)-ethoxy]-acetyl)2-(γ-Glu)-CO-(CH2)12-CO2H)FI-(D-Glu)-αMeY-LIEGGPSSGAPPPSK((2-[2-(2-Amino-ethoxy)-ethoxy]-acetyl)2-(γ-Glu)-CO-(CH2)12-CO2H)-NH2
For the molecule B7, the “cAMP EC50 (1.0% HSA)” value is 598 nM in experiment [1], 10.1 nM in experiment [2] and above 9950 nM in experiment [3]. In addition, the results for the “cAMP Emax (1.0% HSA)” value in experiment [1] and in experiment [2] were 152% and 92.2%, respectively. For the same molecule, the results for the cAMP EC50 in experiment [4], in experiment [5] and in experiment [6] were 0.295 nM, above 9950 nM and 0.0168 nM, respectively. For the same molecule, the cAMP Emax is 104% in experiment [4] and 99.3% in experiment [6].
